Laboratory results published in PMC8706911, “Insights into the Neutralization and DNA Binding of Toxin–Antitoxin System ParESO-CopASO by Structure-Function Studies” (Microorganisms, 2021).

B2: CopASO (SO_1445), antitoxin of the ParESO-CopASO type II toxin-antitoxin system of prophage CP4So (natural protein, Shewanella oneidensis, UniProt Q8EGZ2 1-102, looked up)
chain: MSTIKPVSVKLDADIKARVEHLAETRKRSSHWMMREAIREYVEREEKREALQQEALRAWEEHQTSGLHVTGDEVVSWLESWGSENEQAALHATNSLHCHCIT
modifications: selenomethionine-substituted in the crystal
notes: CopASO (SO_1445), antitoxin of prophage CP4So, Shewanella oneidensis; called full-length in the complex; 93 residues modelled in CopASO (I), 77 in CopASO (II); also called CopASO (I); CopASO (II)

How the values were obtained:
[1] = tested on: CopASO (Shewanella oneidensis (prophage CP4So)); experiment: ITC; conditions: ITC: 20 mM Tris pH 8.0, 100 mM NaCl, 5% (v/v) glycerol, 20 °C; 100-400 uM DNA injected into 10-100 uM protein; one-site model
[2] = tested on: CopASO;ParESO (in purified ParESO-CopASO complex) (Shewanella oneidensis (prophage CP4So);Shewanella oneidensis (prophage CP4So)); experiment: ITC; conditions: ITC: 20 mM Tris pH 8.0, 100 mM NaCl, 5% (v/v) glycerol, 20 °C; 100-400 uM DNA injected into 10-100 uM protein; one-site model
[3] = biological target: B2; experiment: crystal structure; Se-Met ParESO-CopASO complex, crystallised in 20% PEG3350, 0.2 M tri-sodium citrate at 20 °C; SAD, 3.80 Å; conditions: both partners purified
[4] = biological target: the molecule itself; experiment: as above

In the case of “TAAGGTATTACCTAGTAGTACTAAG (double strand) [25 bp copASO-parESO promoter duplex]”, the Kd [1] is reported as 16 nM and the Kd [2] is reported as 660 nM.

B1: ParESO (SO_1444), toxin of the ParESO-CopASO type II toxin-antitoxin system of prophage CP4So (natural protein, Shewanella oneidensis)
chain: MPQIVFTATALRDLERLREFLRSKNPPAAQRAASAIINTIRKLESYPDIGRPIDDNDFSFRELLIDFGDTGYLAMYQYDGGERLTVLCIRHQKEAGY
modifications: selenomethionine-substituted in the crystal
notes: also called ParESO (I); ParESO (II)
B1: binds [3].

B2 was tested, and the “stoichiometry N” value [4] was 2.
